PMC9680610

Legend:
Test in all cases: mass photometry
[1] = target: SARS-CoV-2 spike, wild-type (Wuhan-hu-1 strain), HexaPro stabilised (K986P, V987P, F817P, A892P, A89 (SARS-CoV-2 (Wuhan-hu-1 strain)) (UniProt P0DTC2))
[2] = target: SARS-CoV-2 spike, wild-type (Wuhan-hu-1 strain), 2P stabilised (K986P, V987P), soluble recombinant (SARS-CoV-2 (Wuhan-hu-1 strain)) (UniProt P0DTC2)
[3] = target: SARS-CoV-2 spike, Omicron (B.1.1.529 strain), HexaPro stabilised (SARS-CoV-2 (Omicron B.1.1.529 strain)) (UniProt P0DTC2)
[4] = target: SARS-CoV-2 spike, Omicron (B.1.1.529 strain), 2P stabilised (SARS-CoV-2 (Omicron B.1.1.529 strain)) (UniProt P0DTC2)

Substance | percent of spike counts that are trimer [1] [%] | percent of spike with two ACE2 bound [1] [%] | stoichiometry N [1] | percent of spike with one ACE2 bound [2] [%] | percent of spike with two ACE2 bound [2] [%] | stoichiometry N [2] | stoichiometry N [3] | stoichiometry N [4]
SARS-CoV-2 spike, wild-type (Wuhan-hu-1 strain), HexaPro stabilised (K986P, V987P, F817P, A892P, A89 (from UniProt P0DTC2 14-1208) (natural protein) | 90 | – | – | – | – | – | – | –
angiotensin-converting enzyme-2 (ACE2) with the neck domain (from UniProt Q9BYF1 18-740) (receptor) | – | 7 | < 3 | 42 | 8 | < 3 | < 3 | < 3
angiotensin-converting enzyme-2 (ACE2) without the neck domain (from UniProt Q9BYF1 18-740) (receptor) | – | – | – | – | – | – | < 3 | < 3
